# Test results reported in patent US10428140B2, “Anti-EphA4 antibody” (EISAI R&D MANAGEMENT CO., LTD., priority 2015, dated 2019).
# T1: human EphA6 (Homo sapiens, UniProt Q9UF33)
# T1 construct: a protein of the extracellular region of each human Eph receptor fused with the SEAP protein and the His tag; made in house; host or cells: Expi293F cells (culture supernatant)
# T1 sequence (Q9UF33 23-550 limits assumed): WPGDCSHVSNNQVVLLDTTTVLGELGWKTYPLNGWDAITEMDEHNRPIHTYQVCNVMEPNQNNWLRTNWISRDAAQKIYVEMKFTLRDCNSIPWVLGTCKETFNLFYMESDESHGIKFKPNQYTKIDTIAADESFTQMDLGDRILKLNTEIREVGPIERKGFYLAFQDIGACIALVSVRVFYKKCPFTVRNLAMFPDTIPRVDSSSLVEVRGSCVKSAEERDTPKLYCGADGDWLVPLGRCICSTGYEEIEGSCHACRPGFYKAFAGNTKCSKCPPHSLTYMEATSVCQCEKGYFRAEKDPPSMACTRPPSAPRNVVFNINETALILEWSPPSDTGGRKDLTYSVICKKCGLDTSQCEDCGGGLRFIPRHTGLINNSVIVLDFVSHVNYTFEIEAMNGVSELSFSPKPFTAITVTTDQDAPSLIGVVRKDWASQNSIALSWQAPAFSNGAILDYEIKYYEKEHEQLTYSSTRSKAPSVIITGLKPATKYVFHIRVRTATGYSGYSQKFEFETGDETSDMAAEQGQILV
# T2: human EphB6 (Homo sapiens, UniProt O15197)
# T2 construct: a protein of the extracellular region of each human Eph receptor fused with the SEAP protein and the His tag; made in house; host or cells: Expi293F cells
# T2 sequence (O15197 32-594 limits assumed): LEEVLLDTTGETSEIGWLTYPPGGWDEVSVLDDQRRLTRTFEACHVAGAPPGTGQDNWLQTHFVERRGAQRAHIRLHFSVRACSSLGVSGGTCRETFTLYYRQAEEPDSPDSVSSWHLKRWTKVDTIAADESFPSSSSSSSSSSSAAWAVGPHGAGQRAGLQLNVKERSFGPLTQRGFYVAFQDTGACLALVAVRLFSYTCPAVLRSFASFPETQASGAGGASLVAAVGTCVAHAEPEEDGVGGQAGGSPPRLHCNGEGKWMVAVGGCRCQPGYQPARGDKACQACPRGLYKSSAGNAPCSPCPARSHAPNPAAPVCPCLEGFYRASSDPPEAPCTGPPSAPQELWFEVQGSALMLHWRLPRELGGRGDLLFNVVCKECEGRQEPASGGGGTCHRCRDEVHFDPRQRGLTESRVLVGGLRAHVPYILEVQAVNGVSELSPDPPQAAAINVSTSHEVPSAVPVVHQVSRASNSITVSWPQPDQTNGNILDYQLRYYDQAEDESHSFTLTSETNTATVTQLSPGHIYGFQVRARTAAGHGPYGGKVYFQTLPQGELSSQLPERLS
# Assays:
# Experiment in all cases: Selectivity ELISA of humanized antibodies for human Eph receptor
# Type in all cases: binding
# Settings in all cases: coated protein 1 nM
# SEAP-His = SEAP-His (Homo sapiens, UniProt P05187)
# Chain of SEAP-His (P05187 23-511 limits assumed): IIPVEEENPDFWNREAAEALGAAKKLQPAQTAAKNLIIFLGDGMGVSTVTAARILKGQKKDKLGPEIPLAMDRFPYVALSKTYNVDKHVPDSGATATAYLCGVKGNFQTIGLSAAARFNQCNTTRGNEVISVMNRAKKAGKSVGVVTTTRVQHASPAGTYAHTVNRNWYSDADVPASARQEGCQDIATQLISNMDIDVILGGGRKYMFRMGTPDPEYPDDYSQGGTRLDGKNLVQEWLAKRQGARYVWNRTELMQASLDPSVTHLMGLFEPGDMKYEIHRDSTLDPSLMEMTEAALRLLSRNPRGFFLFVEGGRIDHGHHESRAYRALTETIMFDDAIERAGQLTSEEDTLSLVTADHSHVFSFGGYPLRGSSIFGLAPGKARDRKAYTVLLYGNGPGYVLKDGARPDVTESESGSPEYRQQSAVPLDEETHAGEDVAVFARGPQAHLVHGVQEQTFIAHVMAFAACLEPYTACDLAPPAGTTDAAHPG
# In short: (§1)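 Human Eph ECD-SEAP-His fusions, harvested after 5 days of Expi293F expression, are captured on anti-His-coated wells (1 nM final). Bound humanized antibody is detected with HRP anti-IgG and TMB at 450 nm.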
# human EphA2 = molecular target: T3, human EphA2 (Homo sapiens, UniProt P29317)
# T3 construct: a protein of the extracellular region of each human Eph receptor fused with the SEAP protein and the His tag; made in house; host or cells: Expi293F cells (culture supernatant)
# T3 sequence (P29317 24-537 limits assumed): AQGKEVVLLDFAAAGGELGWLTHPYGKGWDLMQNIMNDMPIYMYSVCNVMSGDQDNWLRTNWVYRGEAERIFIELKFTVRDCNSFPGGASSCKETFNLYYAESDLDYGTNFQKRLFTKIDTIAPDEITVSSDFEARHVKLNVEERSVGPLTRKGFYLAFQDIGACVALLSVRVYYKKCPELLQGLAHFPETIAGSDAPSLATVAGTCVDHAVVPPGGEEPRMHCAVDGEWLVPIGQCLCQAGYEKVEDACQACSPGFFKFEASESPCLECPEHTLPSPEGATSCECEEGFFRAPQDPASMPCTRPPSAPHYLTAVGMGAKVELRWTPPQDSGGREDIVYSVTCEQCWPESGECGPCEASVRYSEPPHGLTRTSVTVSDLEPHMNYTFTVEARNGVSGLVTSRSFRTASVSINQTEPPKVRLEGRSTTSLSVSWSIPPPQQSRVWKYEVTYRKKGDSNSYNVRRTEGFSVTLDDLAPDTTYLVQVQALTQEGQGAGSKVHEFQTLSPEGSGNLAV
# In short: as §1
# human EphA6 = molecular target: T1, human EphA6
# In short: as §1
# human EphB6 = molecular target: T2, human EphB6
# In short: as §1
"SEAP-His: absorbance at 450 nm, percentage with respect to hEphA4-SEAP-His as 100% (SEAP-His) [%]","hEphA2-SEAP-: absorbance at 450 nm, percentage with respect to hEphA4-SEAP-His as 100% (human EphA2) [%]","hEphA6-SEAP-: absorbance at 450 nm, percentage with respect to hEphA4-SEAP-His as 100% (human EphA6) [%]","hEphB6-SEAP-: absorbance at 450 nm, percentage with respect to hEphA4-SEAP-His as 100% (human EphB6) [%]",Molecule
6.1,5.5,9.5,5.6,"69 (antibody, V domains shown, synthetic humanized antibody heavy chain variable region sequence; synthetic humanized antibody light chain variable region sequence) VH: QIQLVQSGSELKKPGASVKVSCKASGYTFTDYSMHWVRQAPGQGLKWMGWINTETGEPTYADDFKGRFVFSLDTSVSTAYLQISSLKAEDTAVYYCARIPLYYYGSRYWYFDVWGQGTTVTVSS VL: DIQMTQSPSSLSASVGDRVTITCRASENIYRNLAWYQQKPGKAPKLLVYAATNLADGVPSRFSGSGSGTDYTLTISSLQPEDFATYYCQHFWGTPWTFGQGTKVEIK"
6.5,5.8,7.5,5.8,"83 (antibody, V domains shown, constant regions without entry; synthetic humanized antibody light chain variable region sequence; synthetic humanized antibody heavy chain variable region sequence) VL: DIQMTQSPSSLSASVGDRVTITCRASENIYRNLAWYQQKPGKAPKLLLYAATNLADGVPSRFSGSGSGTDYTLTISSLQSEDFATYYCQHFWGTPWTFGQGTKVEIK VH: QIQLVQSGSELKKPGASVKVSCKASGYTFTDYSMHWVRQAPGQGLKWMGWINTETGEPTYAQGFTGRFVFSLDTSVSTAYLQISSLKAEDTAVYYCARIPLYYYGSRYWYFDVWGQGTTVTVSS"
5.9,5.4,8.7,5.5,"82 (antibody, V domains shown, constant regions without entry; synthetic humanized antibody light chain variable region sequence; synthetic humanized antibody heavy chain variable region sequence) VL: DIQMTQSPSSLSASVGDRVTITCRASENIYRNLAWYQQKPGKAPKLLLYAATNLADGVPSRFSGSGSGTDYTLTISSLQSEDFATYYCQHFWGTPWTFGQGTKVEIK VH: QVQLVQSGSELKKPGASVKVSCKASGYTFTDYSMHWVRQAPGQGLKWMGWINTETGEPTYAQGFTGRFVFSLDTSVSTAYLQISSLKAEDTAVYYCARIPLYYYGSRYWYFDVWGQGTTVTVSS"
5.1,4.9,6.0,4.9,"84 (antibody, V domains shown, constant regions without entry; synthetic humanized antibody light chain variable region sequence; synthetic humanized antibody heavy chain variable region sequence) VL: DIQMTQSPSSLSASVGDRVTITCRASENIYRNLAWYQQKPGKAPKLLLYAATNLADGVPSRFSGSGSGTDYTLTISSLQSEDFATYYCQHFWGTPWTFGQGTKVEIK VH: QVQLVQSGSELKKPGASVKVSCKASGYTFTDYSMHWVRQAPGQGLEWMGWINTETGEPTYADDFKGRFVFSLDTSVSTAYLQISSLKAEDTAVYYCARIPLYYYGSRYWYFDVWGQGTTVTVSS"
5.3,5.1,6.2,5.2,"85 (antibody, V domains shown, constant regions without entry; synthetic humanized antibody light chain variable region sequence; synthetic humanized antibody heavy chain variable region sequence) VL: DIQMTQSPSSLSASVGDRVTITCRASENIYRNLAWYQQKPGKAPKLLLYAATNLADGVPSRFSGSGSGTDYTLTISSLQSEDFATYYCQHFWGTPWTFGQGTKVEIK VH: QVQLVQSGSELKKPGASVKVSCKASGYTFTDYSMHWVRQAPGQGLKWMGWINTETGEPTYADDFKGRFVFSLDTSVSTAYLQISSLKAEDTAVYYCARIPLYYYGSRYWYFDVWGQGTTVTVSS"
6.1,5.7,8.6,5.7,"86 (antibody, V domains shown, constant regions without entry; synthetic humanized antibody light chain variable region sequence; synthetic humanized antibody heavy chain variable region sequence) VL: DIQMTQSPSSLSASVGDRVTITCRASENIYRNLAWYQQKPGKAPKLLLYAATNLADGVPSRFSGSGSGTDYTLTISSLQSEDFATYYCQHFWGTPWTFGQGTKVEIK VH: QIQLVQSGSELKKPGASVKVSCKASGYTFTDYSMHWVRQAPGQGLKWMGWINTETGEPTYADDFKGRFVFSLDTSVSTAYLQISSLKAEDTAVYYCARIPLYYYGSRYWYFDVWGQGTTVTVSS"
5.5,5.4,6.4,5.3,"87 (antibody, V domains shown, constant regions without entry; synthetic humanized antibody light chain variable region sequence; synthetic humanized antibody heavy chain variable region sequence) VL: DIQMTQSPSSLSASVGDRVTITCRASENIYRNLAWYQQKPGKAPQLLLYAATNLADGVPSRFSGSGSGTDYTLTISSLQPEDFATYYCQHFWGTPWTFGQGTKVEIK VH: QVQLVQSGSELKKPGASVKVSCKASGYTFTDYSMHWVRQAPGQGLEWMGWINTETGEPTYAQGFTGRFVFSLDTSVSTAYLQISSLKAEDTAVYYCARIPLYYYGSRYWYFDVWGQGTTVTVSS"
5.0,4.8,8.8,5.0,"81 (antibody, V domains shown, constant regions without entry; synthetic humanized antibody light chain variable region sequence; synthetic humanized antibody heavy chain variable region sequence) VL: DIQMTQSPSSLSASVGDRVTITCRASENIYRNLAWYQQKPGKAPKLLLYAATNLADGVPSRFSGSGSGTDYTLTISSLQSEDFATYYCQHFWGTPWTFGQGTKVEIK VH: QVQLVQSGSELKKPGASVKVSCKASGYTFTDYSMHWVRQAPGQGLEWMGWINTETGEPTYAQGFTGRFVFSLDTSVSTAYLQISSLKAEDTAVYYCARIPLYYYGSRYWYFDVWGQGTTVTVSS"
